These results are taken from patent US11639389B2.

For this test, the target named is Purified Fc fusion protein of Human CTLA4 (human). Briefly: BLI (Fortebio), CTLA4-Fc immobilized by amine reactive chemistry.

On to “Anti CTLA4 IgG (BioLegend A3.B10.G1) (antibody)”, for which the Kd worked out at 2 nM. This lies in the single-digit nanomolar range.

Usually Kd stands for the equilibrium constant for the complex coming apart. Low readings indicate tighter binding, high ones weaker binding.
